Laboratory results as given in PMC2621267, “The Influence of Catalysis on Mad2 Activation Dynamics” (PLoS Biology, 2009).
Ends that are not written are not given here. * marks the point of attachment. Biotin = O=C1N[C@H]2[C@H](CS[C@H]2CCCCC(=O)*)N1

B1: synthetic biotin-Cdc20^111-138 (peptide, UniProt Q12834 111-138, looked up)
peptide: Biotin-EHQKAWALNLNGFDVEEAKILRLSGKPQ
notes: Cdc20, residues 111-138; Held on the neutravidin-coated surface of the flow chamber through its biotin; also called biotinylated Cdc20 peptide; biotin-Cdc20 peptide^111-138; source: synthetic peptide

Experiments:
Conditions in all cases: both partners purified
[1] = target: T1, Alexa Fluor 488-labelled Mad2^F141A (UniProt Q13257 1-205, F141A, Alexa 488 C5 maleimide, covalent label (residue not stated)); assay: real-time confocal fluorescence on a surface in a flow chamber; biotin-Cdc20 111-138 (~1 uM) held on a neutravidin-coated chamber surface; Alexa-488-Mad2 injected at 1-8 uM in PBS; fluorescence on the surface followed; constants from a global fit of rate equations
T1 construct: Mad2, full length, Phe141 replaced by Ala; monomeric O-Mad2 after labelling; Labelled form of m2; also called Alexa-Mad2^F141A; Alexa-488-Mad2^F141A; source: purified as described [14], labelled with Alexa 488 C5 maleimide, separated from free dye on Superdex-75
T1 sequence (Q13257 whole entry F141A): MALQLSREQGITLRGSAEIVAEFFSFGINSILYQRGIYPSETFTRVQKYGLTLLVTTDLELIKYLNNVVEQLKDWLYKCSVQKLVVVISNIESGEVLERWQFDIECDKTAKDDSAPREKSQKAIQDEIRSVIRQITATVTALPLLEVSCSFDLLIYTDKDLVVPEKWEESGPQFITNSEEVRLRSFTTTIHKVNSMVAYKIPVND

[2] = target: T1, Alexa Fluor 488-labelled Mad2^F141A; assay: real-time confocal fluorescence in a flow chamber, signal in solution; same chamber with surface-held biotin-Cdc20 111-138; loss of Alexa-Mad2 fluorescence from solution followed; parameters of the curves laid over the data, [Cdc20T] = 0.9 uM
Full-length Mad2^F141A = target: T2, Full-length Mad2^F141A (UniProt Q13257 1-205, F141A); assay: pull-down; GST-Cdc20 111-138 (1 uM) immobilised on GSH-agarose beads; 1 uM Mad2 for 24 h at room temperature, or 2 uM Mad2 as a time course; SDS-PAGE and densitometry
T2 construct: Mad2, full length, Phe141 replaced by Ala; purified as a monomer in the open (O-Mad2) conformation; Unlabelled form; source: purified as described [14], final size-exclusion chromatography on Superdex-75 in PBS
T2 sequence (Q13257 whole entry F141A): as above

Full-length Mad2^wt = target: T3, Full-length Mad2^wt (UniProt Q13257 1-205); assay: as above
T3 construct: Mad2, wild type, full length; purified as a monomer in the open (O-Mad2) conformation; Unlabelled form; also called wild-type Mad2; O-Mad2; source: purified as described [14], final size-exclusion chromatography on Superdex-75 in PBS
T3 sequence (Q13257 whole entry): as the sequence (Q13257 whole entry F141A) above, with A141F counted along it

Binder | Kd [1] [nM] | koff [1] [s⁻¹] | kon [1] [M⁻¹ s⁻¹] | Kd [2] [nM] | kon [2] [M⁻¹ s⁻¹] | binding result (Full-length Mad2^F141A) | binding result (Full-length Mad2^wt)
B1 | 100 | 4.83e-06 | 48.3 | 240 | 27 |  | 
EHQKAWALNLNGFDVEEAKILRLSGKPQ (domain or fragment, UniProt Q12834 111-138, looked up, Immobilised on GSH-agarose beads) [GST-Cdc20^111-138] |  |  |  |  |  | binds | binds
